Publication PMC9430756, “AhrC Negatively Regulates Streptococcus mutans Arginine Biosynthesis”

How the values were obtained:
[1] = target: T1, AhrC (Streptococcus mutans UA159) (UniProt Q8DVB1); assay: EMSA; details: EMSA: 20 mM Tris-HCl, 100 mM NaCl, 5% glycerol, 30 min on ice, pH not stated; native PAGE in 0.5x TBE at 4 C. Footprinting: DNase I 0.1 Kunitz units/uL, 4 min …
T1 sequence: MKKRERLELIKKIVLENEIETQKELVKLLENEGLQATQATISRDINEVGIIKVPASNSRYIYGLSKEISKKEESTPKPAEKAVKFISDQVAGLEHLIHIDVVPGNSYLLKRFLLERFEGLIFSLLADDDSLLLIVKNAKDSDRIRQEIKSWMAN

[2] = target: T2, AhrC (Streptococcus mutans UA159, UniProt Q8DVB1 1-154); assay: EMSA; details: protein: recombinant; tags: 6xHis (pET28a, NotI/XhoI); chain copies: 6; label: FAM
T2 sequence: T1 sequence

[3] = target: T2, AhrC; assay: EMSA; EMSA: 20 mM Tris-HCl, 100 mM NaCl, 5% glycerol, 30 min on ice, pH not stated; native PAGE in 0.5x TBE at 4 C. Footprinting: DNase I 0.1 Kunitz units/uL, 4 min at 37 C; details: protein: recombinant; tags: 6xHis (pET28a, NotI/XhoI); chain copies: 6; label: FAM

AATAATTTTGTTATCATGAGTTAAAGTATCTAGTTATAAACTAGGTACTTTTTACATTTTATTCATTTCTAGCTTGACTTATGAATAAATATACGATAAAATAAACAACATCTTTATAAAGGAAGTGAATAAGT (double strand) [argC promoter (argCp)]
binding [1]: binds

B1: argC p1mut (dsDNA)
DNA 1: CATTTCTAGCTTGCCCCCCGACCCCCCATACGATAAA
DNA 2: TTTATCGTATGGGGGGTCGGGGGGCAAGCTAGAAATG
binding result [2]: no binding

B2: argC p1 (dsDNA)
DNA 1: CATTTCTAGCTTGACTTATGAATAAATATACGATAAA
DNA 2: TTTATCGTATATTTATTCATAAGTCAAGCTAGAAATG
binding result [3]: binds
